Assay results taken from PMC11497598.

Tests used:
Test in all cases: analytical SEC
Details in all cases: cell culture supernatant of Expi293F cells; parent: est. 72; read off a plot
[1] = biological target: B/Iowa/06/2017 HA HA1 213A
[2] = biological target: B/Iowa/06/2017 HA HA1 220F
[3] = biological target: B/Iowa/06/2017 HA HA1 220N
[4] = biological target: B/Iowa/06/2017 HA HA1 220Q
[5] = biological target: B/Iowa/06/2017 HA HA1 220T
[6] = biological target: B/Iowa/06/2017 HA HA1 259V
[7] = biological target: B/Iowa/06/2017 HA HA1 314M
[8] = biological target: B/Iowa/06/2017 HA HA1 H311M
[9] = biological target: B/Iowa/06/2017 HA HA1 K209F
[10] = biological target: B/Iowa/06/2017 HA HA1 K209I
[11] = biological target: B/Iowa/06/2017 HA HA1 K209L
[12] = biological target: B/Iowa/06/2017 HA HA1 K209Q
[13] = biological target: B/Iowa/06/2017 HA HA1 K209R
[14] = biological target: B/Iowa/06/2017 HA HA1 K209T
[15] = biological target: B/Iowa/06/2017 HA HA1 K209Y
[16] = biological target: B/Iowa/06/2017 HA HA1 T211V
[17] = biological target: B/Iowa/06/2017 HA HA1 T218N
[18] = biological target: B/Iowa/06/2017 HA HA1 T218V
[19] = biological target: B/Iowa/06/2017 HA HA1 V217K
[20] = biological target: B/Iowa/06/2017 HA HA1 V217W
[21] = biological target: B/Iowa/06/2017 HA HA2 11P
[22] = biological target: B/Iowa/06/2017 HA HA2 15P
[23] = biological target: B/Iowa/06/2017 HA HA2 18P
[24] = biological target: B/Iowa/06/2017 HA HA2 29P
[25] = biological target: B/Iowa/06/2017 HA HA2 30W
[26] = biological target: B/Iowa/06/2017 HA HA2 67T
[27] = biological target: B/Iowa/06/2017 HA HA2 91I
[28] = biological target: B/Iowa/06/2017 HA HA2 93A
[29] = biological target: B/Iowa/06/2017 HA HA2 111Q
[30] = biological target: B/Iowa/06/2017 HA HA2 116R
[31] = biological target: B/Iowa/06/2017 HA HA2 116W
[32] = biological target: B/Iowa/06/2017 HA HA2 D71P
[33] = biological target: B/Iowa/06/2017 HA HA2 E113F
[34] = biological target: B/Iowa/06/2017 HA HA2 E113L
[35] = biological target: B/Iowa/06/2017 HA HA2 E113Q
[36] = biological target: B/Iowa/06/2017 HA HA2 E113W
[37] = biological target: B/Iowa/06/2017 HA HA2 G68L
[38] = biological target: B/Iowa/06/2017 HA HA2 G68Y
[39] = biological target: B/Iowa/06/2017 HA HA2 H22Y
[40] = biological target: B/Iowa/06/2017 HA HA2 H114I
[41] = biological target: B/Iowa/06/2017 HA HA2 H114Q
[42] = biological target: B/Iowa/06/2017 HA HA2 H114W
[43] = biological target: B/Iowa/06/2017 HA HA2 H114Y
[44] = biological target: B/Iowa/06/2017 HA HA2 Q64F
[45] = biological target: B/Iowa/06/2017 HA HA2 Q64P
[46] = biological target: B/Iowa/06/2017 HA HA2 Q64W
[47] = biological target: B/Iowa/06/2017 HA HA2 Q64Y
[48] = biological target: B/Iowa/06/2017 HA HA2 S40A
[49] = biological target: B/Iowa/06/2017 HA HA2 S110R
[50] = biological target: B/Iowa/06/2017 HA HA2 S110W

wild-type soluble hemagglutinin (HA) of influenza B/Iowa/06/2017 HA1:213A
other: trimer fraction [1]: 82%

wild-type soluble hemagglutinin (HA) of influenza B/Iowa/06/2017 HA1:220F
other: trimer fraction [2]: 85%

wild-type soluble hemagglutinin (HA) of influenza B/Iowa/06/2017 HA1:220N
other: trimer fraction [3]: 71%

wild-type soluble hemagglutinin (HA) of influenza B/Iowa/06/2017 HA1:220Q
other: trimer fraction [4]: 62%

wild-type soluble hemagglutinin (HA) of influenza B/Iowa/06/2017 HA1:220T
other: trimer fraction [5]: 79%

wild-type soluble hemagglutinin (HA) of influenza B/Iowa/06/2017 HA1:259V
other: trimer fraction [6]: 92%

wild-type soluble hemagglutinin (HA) of influenza B/Iowa/06/2017 HA1:314M
other: trimer fraction [7]: 49%

wild-type soluble hemagglutinin (HA) of influenza B/Iowa/06/2017 HA1:H311M
other: trimer fraction [8]: 68%

wild-type soluble hemagglutinin (HA) of influenza B/Iowa/06/2017 HA1:K209F
other: trimer fraction [9]: 96%

wild-type soluble hemagglutinin (HA) of influenza B/Iowa/06/2017 HA1:K209I
other: trimer fraction [10]: 93%

wild-type soluble hemagglutinin (HA) of influenza B/Iowa/06/2017 HA1:K209L
other: trimer fraction [11]: 96%

wild-type soluble hemagglutinin (HA) of influenza B/Iowa/06/2017 HA1:K209Q
other: trimer fraction [12]: 98%

wild-type soluble hemagglutinin (HA) of influenza B/Iowa/06/2017 HA1:K209R
other: trimer fraction [13]: 79%

wild-type soluble hemagglutinin (HA) of influenza B/Iowa/06/2017 HA1:K209T
other: trimer fraction [14]: 98%

wild-type soluble hemagglutinin (HA) of influenza B/Iowa/06/2017 HA1:K209Y
other: trimer fraction [15]: 92%

wild-type soluble hemagglutinin (HA) of influenza B/Iowa/06/2017 HA1:T211V
other: trimer fraction [16]: 78%

wild-type soluble hemagglutinin (HA) of influenza B/Iowa/06/2017 HA1:T218N
other: trimer fraction [17]: 89%

wild-type soluble hemagglutinin (HA) of influenza B/Iowa/06/2017 HA1:T218V
other: trimer fraction [18]: 69%

wild-type soluble hemagglutinin (HA) of influenza B/Iowa/06/2017 HA1:V217K
other: trimer fraction [19]: 91%

wild-type soluble hemagglutinin (HA) of influenza B/Iowa/06/2017 HA1:V217W
other: trimer fraction [20]: 96%

wild-type soluble hemagglutinin (HA) of influenza B/Iowa/06/2017 HA2:11P
other: trimer fraction [21]: 76%

wild-type soluble hemagglutinin (HA) of influenza B/Iowa/06/2017 HA2:15P
other: trimer fraction [22]: 69%

wild-type soluble hemagglutinin (HA) of influenza B/Iowa/06/2017 HA2:18P
other: trimer fraction [23]: 57%

wild-type soluble hemagglutinin (HA) of influenza B/Iowa/06/2017 HA2:29P
other: trimer fraction [24]: 77%

wild-type soluble hemagglutinin (HA) of influenza B/Iowa/06/2017 HA2:30W
other: trimer fraction [25]: 69%

wild-type soluble hemagglutinin (HA) of influenza B/Iowa/06/2017 HA2:67T
other: trimer fraction [26]: 77%

wild-type soluble hemagglutinin (HA) of influenza B/Iowa/06/2017 HA2:91I
other: trimer fraction [27]: 56%

wild-type soluble hemagglutinin (HA) of influenza B/Iowa/06/2017 HA2:93A
other: trimer fraction [28]: 87%

wild-type soluble hemagglutinin (HA) of influenza B/Iowa/06/2017 HA2:111Q
other: trimer fraction [29]: 84%

wild-type soluble hemagglutinin (HA) of influenza B/Iowa/06/2017 HA2:116R
other: trimer fraction [30]: 86%

wild-type soluble hemagglutinin (HA) of influenza B/Iowa/06/2017 HA2:116W
other: trimer fraction [31]: 90%

wild-type soluble hemagglutinin (HA) of influenza B/Iowa/06/2017 HA2:D71P
other: trimer fraction [32]: 88%

wild-type soluble hemagglutinin (HA) of influenza B/Iowa/06/2017 HA2:E113F
other: trimer fraction [33]: 98%

wild-type soluble hemagglutinin (HA) of influenza B/Iowa/06/2017 HA2:E113L
other: trimer fraction [34]: 97%

wild-type soluble hemagglutinin (HA) of influenza B/Iowa/06/2017 HA2:E113Q
other: trimer fraction [35]: 97%

wild-type soluble hemagglutinin (HA) of influenza B/Iowa/06/2017 HA2:E113W
other: trimer fraction [36]: 100%

wild-type soluble hemagglutinin (HA) of influenza B/Iowa/06/2017 HA2:G68L
other: trimer fraction [37]: 97%

wild-type soluble hemagglutinin (HA) of influenza B/Iowa/06/2017 HA2:G68Y
other: trimer fraction [38]: 96%

wild-type soluble hemagglutinin (HA) of influenza B/Iowa/06/2017 HA2:H22Y
other: trimer fraction [39]: 85%

wild-type soluble hemagglutinin (HA) of influenza B/Iowa/06/2017 HA2:H114I
other: trimer fraction [40]: 55%

wild-type soluble hemagglutinin (HA) of influenza B/Iowa/06/2017 HA2:H114Q
other: trimer fraction [41]: 65%

wild-type soluble hemagglutinin (HA) of influenza B/Iowa/06/2017 HA2:H114W
other: trimer fraction [42]: 43%

wild-type soluble hemagglutinin (HA) of influenza B/Iowa/06/2017 HA2:H114Y
other: trimer fraction [43]: 65%

wild-type soluble hemagglutinin (HA) of influenza B/Iowa/06/2017 HA2:Q64F
other: trimer fraction [44]: 96%

wild-type soluble hemagglutinin (HA) of influenza B/Iowa/06/2017 HA2:Q64P
other: trimer fraction [45]: 65%

wild-type soluble hemagglutinin (HA) of influenza B/Iowa/06/2017 HA2:Q64W
other: trimer fraction [46]: 93%

wild-type soluble hemagglutinin (HA) of influenza B/Iowa/06/2017 HA2:Q64Y
other: trimer fraction [47]: 98%

wild-type soluble hemagglutinin (HA) of influenza B/Iowa/06/2017 HA2:S40A
other: trimer fraction [48]: 52%

wild-type soluble hemagglutinin (HA) of influenza B/Iowa/06/2017 HA2:S110R
other: trimer fraction [49]: 86%

wild-type soluble hemagglutinin (HA) of influenza B/Iowa/06/2017 HA2:S110W
other: trimer fraction [50]: 51%
